Patent publication US20110263454A1, “Methods of Identifying Functional Characteristics of Promoters, Transcription Modifying Proteins and Transcription Modulating Agents” (Salk Institute for Biological Studies, priority 2008, published 2011)

B1: NR4a2: NR4a2 (NR4A2; NURR1), nuclear hormone receptor cDNA driver (protein, UniProt P43354 1-598, looked up)
Nuclear receptor subfamily 4 …: MPCVQAQYGSSPQGASPASQSYSYHSSGEYSSDFLTPEFVKFSMDLTNTEITATTSLPSFSTFMDNYSTGYDVKPPCLYQMPLSGQQSSIKVEDIQMHNYQQHSHLPPQSEEMMPHSGSVYYKPSSPPTPTTPGFQVQHSPMWDDPGSLHNFHQNYVATTHMIEQRKTPVSRLSLFSFKQSPPGTPVSSCQMRFDGPLHVPMNPEPAGSHHVVDGQTFAVPNPIRKPASMGFPGLQIGHASQLLDTQVPSPPSRGSPSNEGLCAVCGDNAACQHYGVRTCEGCKGFFKRTVQKNAKYVCLANKNCPVDKRRRNRCQYCRFQKCLAVGMVKEVVRTDSLKGRRGRLPSKPKSPQEPSPPSPPVSLISALVRAHVDSNPAMTSLDYSRFQANPDYQMSGDDTQHIQQFYDLLTGSMEIIRGWAEKIPGFADLPKADQDLLFESAFLELFVLRLAYRSNPVEGKLIFCNGVVLHRLQCVRGFGEWIDSIVEFSSNLQNMNIDISAFSCIAALAMVTERHGLKEPKRVEELQNKIVNCLKDHVTFNNGGLNRPNYLSKLLGKLPELRTLCTQGLQRIFYLKLEDLVPPPAIIDKLFLDTLPF
B2: NR4a3: NR4a3 (NR4A3; NOR1), nuclear hormone receptor cDNA driver (protein, UniProt Q92570 1-626, looked up)
Nuclear receptor subfamily 4 …: MPCVQAQYSPSPPGSSYAAQTYSSEYTTEIMNPDYTKLTMDLGSTEITATATTSLPSISTFVEGYSSNYELKPSCVYQMQRPLIKVEEGRAPSYHHHHHHHHHHHHHHQQQHQQPSIPPASSPEDEVLPSTSMYFKQSPPSTPTTPAFPPQAGALWDEALPSAPGCIAPGPLLDPPMKAVPTVAGARFPLFHFKPSPPHPPAPSPAGGHHLGYDPTAAAALSLPLGAAAAAGSQAAALESHPYGLPLAKRAAPLAFPPLGLTPSPTASSLLGESPSLPSPPSRSSSSGEGTCAVCGDNAACQHYGVRTCEGCKGFFKRTVQKNAKYVCLANKNCPVDKRRRNRCQYCRFQKCLSVGMVKEVVRTDSLKGRRGRLPSKPKSPLQQEPSQPSPPSPPICMMNALVRALTDSTPRDLDYSRYCPTDQAAAGTDAEHVQQFYNLLTASIDVSRSWAEKIPGFTDLPKEDQTLLIESAFLELFVLRLSIRSNTAEDKFVFCNGLVLHRLQCLRGFGEWLDSIKDFSLNLQSLNLDIQALACLSALSMITERHGLKEPKRVEELCNKITSSLKDHQSKGQALEPTESKVLGALVELRKICTLGLQRIFYLKLEDLVSPPSIIDKLFLDTLPF
B3: DAX-1: DAX1 (NR0B1), cDNA driver (protein, UniProt P51843 1-470, looked up)
Nuclear receptor subfamily 0 …: MAGENHQWQGSILYNMLMSAKQTRAAPEAPETRLVDQCWGCSCGDEPGVGREGLLGGRNVALLYRCCFCGKDHPRQGSILYSMLTSAKQTYAAPKAPEATLGPCWGCSCGSDPGVGRAGLPGGRPVALLYRCCFCGEDHPRQGSILYSLLTSSKQTHVAPAAPEARPGGAWWDRSYFAQRPGGKEALPGGRATALLYRCCFCGEDHPQQGSTLYCVPTSTNQAQAAPEERPRAPWWDTSSGALRPVALKSPQVVCEAASAGLLKTLRFVKYLPCFQVLPLDQQLVLVRNCWASLLMLELAQDRLQFETVEVSEPSMLQKILTTRRRETGGNEPLPVPTLQHHLAPPAEARKVPSASQVQAIKCFLSKCWSLNISTKEYAYLKGTVLFNPDVPGLQCVKYIQGLQWGTQQILSEHTRMTHQGPHDRFIELNSTLFLLRFINANVIAELFFRPIIGTVSMDDMMLEMLCTKI
B4: SHP: Small Heterodimer Partner (NR0B2), cDNA driver (protein, UniProt Q15466 1-257, looked up)
Nuclear receptor subfamily 0 …: MSTSQPGACPCQGAASRPAILYALLSSSLKAVPRPRSRCLCRQHRPVQLCAPHRTCREALDVLAKTVAFLRNLPSFWQLPPQDQRRLLQGCWGPLFLLGLAQDAVTFEVAEAPVPSILKKILLEEPSSSGGSGQLPDRPQPSLAAVQWLQCCLESFWSLELSPKEYACLKGTILFNPDVPGLQAASHIGHLQQEAHWVLCEVLEPWCPAAQGRLTRVLLTASTLKSIPTSLLGDLFFRPIIGDVDIAGLLGDMLLLR
B5: GCNF: Germ Cell Nuclear Factor (NR6A1, GCNF1), cDNA driver (protein, UniProt Q15406 1-480, looked up)
Nuclear receptor subfamily 6 …: MERDEPPPSGGGGGGGSAGFLEPPAALPPPPRNGFCQDELAELDPGTISVSDDRAEQRTCLICGDRATGLHYGIISCEGCKGFFKRSICNKRVYRCSRDKNCVMSRKQRNRCQYCRLLKCLQMGMNRKAIREDGMPGGRNKSIGPVQISEEEIERIMSGQEFEEEANHWSNHGDSDHSSPGNRASESNQPSPGSTLSSSRSVELNGFMAFREQYMGMSVPPHYQYIPHLFSYSGHSPLLPQQARSLDPQSYSLIHQLLSAEDLEPLGTPMLIEDGYAVTQAELFALLCRLADELLFRQIAWIKKLPFFCELSIKDYTCLLSSTWQELILLSSLTVYSKQIFGELADVTAKYSPSDEELHRFSDEGMEVIERLIYLYHKFHQLKVSNEEYACMKAINFLNQDIRGLTSASQLEQLNKRYWYICQDFTEYKYTHQPNRFPDLMMCLPEIRYIAGKMVNVPLEQLPLLFKVVLHSCKTSVGKE

What was measured:
mPgc1b promoter = experiment: NHR-promoter luciferase screen, mPgc1b promoter; type: cell-based, mouse; conditions: for Luc. act., normalized to lacZ / Normalized Luc. act., normalized to control: PGC1b promoter reporter, co-transfected HR, without or with its ligand; for Normalized Luc. act., normalized to control: relative to control; for luciferase activity normalized to lacZ activity and to a control, mPgc1b: mPgc1b promoter-luciferase, CV-1 cells, NHR +/- ligand, control = 1.00
Summary of the method: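 Luciferase reporter read-out after co-expression in CV-1 cells of V5H6-tagged receptor (alone or with RXR), the promoter construct and LacZ. Values are luciferase/LacZ relative to a control lacking NHR or ligand; orphan receptors tested ligand-free.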

hIRF7 promoter = experiment: NHR-promoter luciferase screen, hIRF7 promoter; type: cell-based, human; conditions: for Normalized Luc. act., normalized to control / Luc. act., normalized to lacZ: IRF7 promoter reporter; for Normalized Luc. act., normalized to control: HR without or with its ligand, relative to control; for Luc. act., normalized to lacZ: hormone receptor (HR) without or with its ligand; for hIRF7 promoter reporter activity: transcription factor +/- ligand, control = 1.00
Summary of the method: (§1)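 CV-1 cells were co-transfected with 50 ng NHR (homodimer or NHR/RXR heterodimer), 100 ng promoter-luciferase construct and 50 ng LacZ. Luciferase was normalized to LacZ and to a no-NHR/no-ligand control.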

mAdiponectin promoter = experiment: NHR-promoter luciferase screen, mAdiponectin promoter; type: cell-based, mouse; conditions: for Luc. act., normalized to lacZ / Normalized Luc. act., normalized to control: Adiponectin, HR component without or with its ligand; for mAdiponectin promoter reporter activity: transcription factor +/- ligand, control = 1.00
Summary of the method: as §1

hPPARg2 promoter = experiment: NHR-promoter luciferase screen, hPPARg2 promoter; type: cell-based, human; conditions: for Luc. act., normalized to lacZ / Normalized Luc. act., normalized to control: PPARG2 promoter, hormone receptor with or without its ligand; for Normalized Luc. act., normalized to control: relative to control; for Results of assays of transcription factor (+/- ligand) with hPPARg2: Table 6d, luciferase activity relative to control (control = 1.00)
Summary of the method: as §1

hG6PD promoter = experiment: NHR-promoter luciferase screen, hG6PD promoter; type: cell-based, human; conditions: for Luc. act., normalized to lacZ / Normalized Luc. act., normalized to control: G6PD promoter reporter, co-transfected HR, without or with its ligand; for Normalized Luc. act., normalized to control: relative to control; for luciferase activity normalized to lacZ activity and to a control, hG6PD: hG6PD promoter-luciferase, CV-1 cells, NHR +/- ligand, control = 1.00
Summary of the method: as §1

hPPARg1 promoter = experiment: NHR-promoter luciferase screen, hPPARg1 promoter; type: cell-based, human; conditions: for Luc. act., normalized to lacZ / Normalized Luc. act., normalized to control: PPARG1 promoter, hormone receptor with or without its ligand; for Normalized Luc. act., normalized to control: relative to control; for Results of assays of transcription factor (+/- ligand) with hPPARg1: Table 6d, luciferase activity relative to control (control = 1.00)
Summary of the method: as §1

Molecule | Luc. act., normalized to lacZ (mPgc1b promoter) | Normalized Luc. act., normalized to control (mPgc1b promoter) | luciferase activity normalized to lacZ activity and to a control, mPgc1b (mPgc1b promoter) | Normalized Luc. act., normalized to control (hIRF7 promoter) | Luc. act., normalized to lacZ (hIRF7 promoter) | hIRF7 promoter reporter activity (hIRF7 promoter) | Luc. act., normalized to lacZ (mAdiponectin promoter) | Normalized Luc. act., normalized to control (mAdiponectin promoter) | mAdiponectin promoter reporter activity (mAdiponectin promoter) | Luc. act., normalized to lacZ (hPPARg2 promoter) | Normalized Luc. act., normalized to control (hPPARg2 promoter) | Results of assays of transcription factor (+/- ligand) with hPPARg2 (hPPARg2 promoter) | Luc. act., normalized to lacZ (hG6PD promoter) | Normalized Luc. act., normalized to control (hG6PD promoter) | luciferase activity normalized to lacZ activity and to a control, hG6PD (hG6PD promoter) | Luc. act., normalized to lacZ (hPPARg1 promoter) | Normalized Luc. act., normalized to control (hPPARg1 promoter) | Results of assays of transcription factor (+/- ligand) with hPPARg1 (hPPARg1 promoter)
B1 | 9.0 | 0.8 | 0.76 | 0.9 | 23.2 | 0.88 | 35.8 | 0.6 | 0.57 | 1.4 | 0.7 | 0.68 | 41.1 | 1.1 | 1.10 | 58.8 | 0.9 | 0.85
B2 | 9.2 | 0.8 | 0.77 | 0.9 | 24.9 | 0.95 | 35.7 | 0.6 | 0.57 | 1.1 | 0.6 | 0.57 | 43.4 | 1.2 | 1.16 | 61.0 | 0.9 | 0.88
B3 | 7.4 | 0.6 | 0.62 | 1.1 | 27.9 | 1.06 | 45.6 | 0.7 | 0.73 | 1.9 | 0.9 | 0.94 | 46.0 | 1.2 | 1.23 | 67.5 | 1.0 | 0.98
B4 | 9.0 | 0.8 | 0.76 | 1.1 | 29.1 | 1.10 | 46.1 | 0.7 | 0.73 | 1.9 | 0.9 | 0.93 | 43.2 | 1.2 | 1.15 | 67.9 | 1.0 | 0.99
B5 | 11.7 | 1.0 | 0.99 | 1.1 | 28.4 | 1.08 | 63.1 | 1.0 | 1.00 | 1.4 | 0.7 | 0.69 | 46.1 | 1.2 | 1.23 | 88.6 | 1.3 | 1.29
